Source: publication PMC9274004, “Deciphering the Molecular Interaction Between the Adhesion G Protein-Coupled Receptor ADGRV1 and its PDZ-Containing Regulator PDZD7” (Frontiers in Molecular Biosciences, 2022)
“Also recorded” adds a separate entry of the source.

Assays:
PDZD7 PDZ1ext WT = test: nanoDSF thermostability of PDZ1ext WT in complex; type: binding, murine; settings: MES pH6 (50 mM), PDZ1ext WT + ADGRV1pbm 756 μM, unbound Tm 61.6°C
Description: (§1) NanoDSF experiments were performed on a Prometheus (Nanotemper) spectrometer using Prometheus NT.48 Series nanoDSF Grade High Sensitivity Capillaries. All samples were prepared in MES pH6 (50 mM) at micromolar concentrations. For the complexes, ADGRV1pbm peptide was added at a final concentration of 756 μM, diluting the samples by 5%.

[1] = nanoDSF thermostability of unbound PDZD7 constructs; type: physicochemical; settings: MES pH6 (50 mM), micromolar concentrations, without ligand
Description: as §1

[2] = SAXS geometrical parameters of unbound PDZ tandem; type: physicochemical; settings: without ligand, Phosphate Buffer 50 mM pH 6.5, NaCl 300 mM, TCEP 0.5 mM
Description: X-ray scattering data were collected at the SWING beamline at Soleil Synchrotron (Saclay, France). 50 μl of sample are injected on a Superdex-75 5/150 GL size exclusion column in-line with the SAXS measuring cell. PDZD7 samples are prepared in the same buffer (Phosphate Buffer 50 mM pH 6.5, NaCl 300 mM, TCEP 0.5 mM, anti-proteases). The experiment is performed at initial concentrations of 119 μM (3.1 mg/ml) for P1P2 WT and 108 μM (2.8 mg/ml) for P1P2 G103R. For complexes, 2 μl of pH-adjusted ADGRV1pbm peptide (VELRRIPIADTHL-COOH; 13,7 mM) are added to the 50 μl from the sample 1 hour before recording. Initial data processing was performed using sxCuBE, FOXTROT and PRIMUS. The radii of gyration were evaluated using Guinier approximation. The Dmax was determined from the distance distribution function P(r) obtained with the program GNOM.

[3] = Analytical UltraCentrifugation of unbound P1P2; type: physicochemical; settings: AUC, 10°C, P1P2 0.4 mg/ml, Phosphate Buffer pH 6.5 (50 mM)
Description: AUC experiments were performed at 10°C using an analytical Beckman Coulter Optima ultracentrifuge equipped with a AN50-Ti rotor. The P1P2 sample was prepared at 0.4 mg/ml in Phosphate Buffer pH 6.5 (50 mM). For the complex, 10 μl of pH-adjusted ADGRV1pbm peptide (13,7 mM) were added to 300 μl of P1P2 sample. Interference profiles were analyzed with SEDFIT.

PDZD7 P1P2 WT = test: nanoDSF thermostability of P1P2 WT in complex; type: binding, murine; settings: MES pH6 (50 mM), P1P2 WT + ADGRV1pbm 756 μM, unbound Tm 41°C
Description: as §1

ADGRV1 = settings: cellular models, PDZ-PBM dependent; ref Hu et al., 2014; cited from earlier work
From the text: Cochlear hair cells are the primary receptors for the detection of sound-induced vibrations. […] The shape of the bundle is critical for the cohesive deflection of the stereocilia necessary for the cell function. Morphogenesis of the hair bundle is regulated during cochlear development, but the underlying signaling pathways remain elusive. The ankle link protein complex, transiently expressed at the base of the stereocilia, is the main candidate for regulating bundle morphogenesis, with pathogenic varia ... || PDZD7 and ADGRV1 are the main candidate proteins for regulating the signaling associated with the Usher2 complex. PDZD7 is primarily a scaffolding protein, with several protein-protein interaction domains (three PDZ domains and one HHD) likely recruiting several partners at the ankle links anchoring sites ([Du et al., 2018]).

ADGRV1 β subunit = test: Pull-down of ADGRV1 β subunit by full-length PDZD7-GFP from HeLa cell lysates; type: binding, murine; settings: PDZD7-GFP bait, anti-GFP beads, 4°C 1 h, western blot, vs no bait
Description: HeLa cells were maintained in Dulbecco’s modified Eagle’s medium (DMEM) containing 10% fetal calf serum (FCS). PDZD7 constructs correspond to the full-length murine sequence in fusion with a N-terminal strep tag and a C-terminal GFP, wild-type or carrying G103R/G228R variants, cloned in a PMT3 vector. The ADGRV1 construct corresponds to the murine β subunit of the receptor (5884-6298) cloned in a pRK5 vector. Plasmids were transfected in separate HeLa cultures using 25 μg (PDZD7) and 10 μg (ADGRV1) of DNA per 10 cm dish using TurboFect™ Transfection Reagent (ThermoFisher Scientific) at 3 μl per μg of transfected DNA. Mixes were prepared in volumes of 1 ml/plate (in DMEM), vortexed and incubated up to 30 min at room temperature, cell media were renewed before transfection. After drop by drop addition of the transfection mix, cells were maintained at 37°C for 14 h for protein expression. Cells were dissociated using Gibco™ Trypsine-EDTA (0,05%), subsequently inactivated by addition of DMEM containing 10% FCS. Cells were counted, pelleted and resuspended at similar concentrations in PBS Tween 0.01%, Dodécyl-β-D-maltoside (DDM) 0.1% containing anti-proteases (buffer). Benzonase (Sigma) was added before sonication of the cells (40 mA amplitude, 10 pulses of 12 s with 18 s intervals, in ice). An identical volume of ADGRV1 β transfected cell lysate was mixed to either PDZD7 WT, G103R or G228R transfected cell lysates. PDZ proteins have different expression levels, meaning that different amounts of sample are needed to saturate the dynabeads with the PDZ proteins. Pull down experiments have been performed several times allowing us to estimate the yield of expression of each PDZ construct for a given amount of cells. […] Target proteins were detected using mouse α-GFP (LivingColors™ JL-8, Takara) and rabbit α-ADGRV1 (custom, raised against the cytoplasmic domain) antibodies (1/2000 in 5% milk TBST), as well as secondary α-mouse and α-rabbit IgG antibodies coupled to HRP (1/2000 in 5% milk TBST). […]

PDZD7 PDZ2ext WT = test: nanoDSF thermostability of PDZ2ext WT in complex; type: binding, murine; settings: MES pH6 (50 mM), PDZ2ext WT + ADGRV1pbm 756 μM, unbound Tm 38.5°C
Description: as §1

[4] = Aggregation / sample stability of purified PDZ2 constructs; type: physicochemical
From the text: The biochemical behavior of PDZD7 PDZ2 drastically differs from PDZ1, with or without its C-terminal extension. […] In order to further establish the accessible folding states of the PDZ2 extension, we used the same metadynamics approach as for PDZ1ext and probed its conformational energy landscape (Figure 3C).

B1: PDZ1ext WT: first PDZ of mouse PDZD7 with its C-terminal extension (A81 to E192) (protein, UniProt E9Q9W7 81-192, looked up, fragment)
chain: SDIIHAVRVEKSPSGRLGFSVRGGSEHGLGIFVSKVEEGSSAERAGLCVGDKITEVNGLSLESTTMGSAVRLLTSSSCLHMMVRRMGRVPGIKFSKEKTTWVDVVNRRLVVE
For B1, the “Tm (Bound)” value (PDZD7 PDZ1ext WT) was 61.8 °C and the “Tm (Unbound)” value [1] was 61.6 °C.

B2: P1P2 WT: PDZD7 PDZ tandem (P1P2 construct; A81 to G313) (protein, UniProt E9Q9W7 81-313, looked up, fragment)
chain: SDIIHAVRVEKSPSGRLGFSVRGGSEHGLGIFVSKVEEGSSAERAGLCVGDKITEVNGLSLESTTMGSAVRLLTSSSCLHMMVRRMGRVPGIKFSKEKTTWVDVVNRRLVVEKCSSTPSDRSSEDGVRRIVHLYTTSDDFCLGFNIRGGKEFGLGIYVSKVDHGGLAEENGIKVGDQVLAANGVRFDDISHSQAVEVLKGQTHIMLTIKETGRYPAYKEMVSEYCWLDRLSNG
For B2, the “radius of gyration (Rg)” value ([2]; Guinier approximation) was 27.8 Å, the “interatomic maximum distance (Dmax)” value ([2]; P(r) with GNOM) was 109.5 Å and the sedimentation coefficient [3] was 1.6 Svedberg (S). The “Tm (Bound)” value (PDZD7 P1P2 WT) was 57.2 °C and the “Tm (Unbound)” value [1] was 41 °C.

B3: WT PDZD7: full-length murine PDZD7 in fusion with N-terminal strep tag and C-terminal GFP (pull-down) (protein)
chain: MARGFTVGFDPLGLGELSSGSLSSVSSRGHLGSDSGSTATRYLLRKQQRLLNGPSRGIRASSPMGRVILINSPIEANSDESDIIHAVRVEKSPSGRLGFSVRGGSEHGLGIFVSKVEEGSSAERAGLCVGDKITEVNGLSLESTTMGSAVRLLTSSSCLHMMVRRMGRVPGIKFSKEKTTWVDVVNRRLVVEKCSSTPSDRSSEDGVRRIVHLYTTSDDFCLGFNIRGGKEFGLGIYVSKVDHGGLAEENGIKVGDQVLAANGVRFDDISHSQAVEVLKGQTHIMLTIKETGRYPAYKEMVSEYCWLDRLSNGVLQQLSPASESSSSVSSYASSAPCSSGSLPSDRMDVCLGPEEPTSHGPGWGRADTAMQTEPDLDSRVETWCSVRPTVILRDTAIRSDGPSSTRHLDSALSESPKTALLLALSRPRTPITRSQSHLTLWEEKKQRKKEKSGSSGEKGALQRSKTLMNLFFKGGRQGRPAGDGHREAWTLDSRSPTKVRPRLDLEKAGSVGPVQKFVTWRLRRDRERGRALLSARSGSPSGQAPTVNEQVQAWESRRPLIQDLARRLLTDDEVLAVTRHCSRYVHEGGVEDLVRPLLAILDRPTKLLLLRDIRSVVAPTDLGRFDSMVMPVELEAFEALKSRAVGPSALRPTRQDTPPKRHLITPVPDSRGGFYLLPVNSSEDEDGEIREKLGVLKVSLGASAPHHKGIPPLQDVPVDAFSLRRGACAPPPQPPPVAPRPPRPNWLLTEPLSREDTQQNQSQTPAQSCSRSRSRSRSRSHSRGQGKSPGRRRSPSPAPIATAATANGRYHRPRKARPLLPRLLDGQVAKVGARQGPLENGRIAEEAVGNVSTGALRTITLSKMKQSLGISISGGIESKVQPMVKIEKIFPGGAAFLCGDLQAGFELVAVDGESLEQVTHQRAVDTIRRAYRNKAREPMELVVRVPGPGLLPLASDLRVVKDQSLAPDCPSALGPVDDARILTQLPPPEARQLQQSLSSALKVPQSIPKLSPILKDPHDPS
modifications: left off: strep tag, N-terminal, kept | GFP, C-terminal, kept
In the case of B3, the “effect on ADGRV1 GPCR activity” value (ADGRV1) is given as “downregulates the GPCR activity and restores cAMP levels; also recorded: downregulates ADGRV1 GPCR activity” and the “binding of ADGRV1 β subunit (pull-down)” value (ADGRV1 β subunit) is given as “a clear band is observed”.

B4: PDZ2ext WT: second PDZ of mouse PDZD7 with its C-terminal extension (G206 to G313) (protein)
chain: GVRRIVHLYTTSDDFCLGFNIRGGKEFGLGIYVSKVDHGGLAEENGIKVGDQVLAANGVRFDDISHSQAVEVLKGQTHIMLTIKETGRYPAYKEMVSEYCWLDRLSNG
modifications: left off: GST, N-terminal, cleaved
With B4 the “Tm (Bound)” value (PDZD7 PDZ2ext WT) was 47.2 °C, the “Tm (Unbound)” value [1] was 38.5 °C and the sample stability ([4]; 15N-labelled PDZ2 constructs, NMR) was “stable for a few hours only”. For the same molecule, the aggregation ([4]; at temperatures higher than 15 °C, despite extensive screening of buffer conditions) was “Rapid aggregation”.
